According to patent publication US20220348674A1 (APOLLOMICS, published 2022):
Positions count from the first letter of the chain named.

What was measured:
[1] = target: T1, purified recombinant human CD40 protein (human, UniProt P25942 21-193); experiment: Octet (BLI), recombinant CD40
T1 construct: also called recombinant CD40

[2] = target: T2, cell surface human CD40 on HEK-CD40 cells (human, UniProt P25942 21-277); experiment: flow cytometry, titration on HEK-CD40 cells, CD40 MFI, anti-human IgG secondary antibody
T2 construct: whole, on cells; also called cell surface CD40
Procedure: HEK-CD40 were collected and plated at 10⁵ cells per well in 96-well round bottom plate in FACS buffer. Serial dilutions of antibodies (Control IgG1, CP870,893, APX005m and 3B5) in 100 ul were incubated with the HEK-CD40 cells for 60 min at 4° C. Cells were washed 3 times with 200 ul FACS buffer. Cell-bound antibodies were detected using an APC-conjugated secondary antibody specific to human IgG heavy and light chain. After incubating 30 min with secondary antibody, HEK-CD40 cells were washed 3 times with 200 ul FACS buffer and resuspended in 200 ul FACS with 1 ug/ml DAPI. Flow cytometric analyses were performed using Attune N×T flow cytometer (ThermoFisher Scientific, Waltham, Mass.). After gating on FCS-SSC parameters to exclude debris and selectively gating DAPI negative cells on DAPI-SSC parameters to exclude dead cells, the geometric mean fluorescence intensity (MFI) of antibodies was determined using FlowJo v10 (BD Bioscience, San Jose, Calif.). Dose-response curves were generated and EC50s calculated using GraphPad Prism 8 (GraphPad Software, San Diego, Calif.).

[3] = target: CD40 on HEKBlue CD40L reporter cells (UniProt P25942 21-277, limits assumed); experiment: cell-based or functional assay
[4] = target: T1, purified recombinant human CD40 protein; experiment: ELISA on coated recombinant human CD40; chimeric antibody supernatant
Procedure: ELISA plate was coated with purified recombinant CD40 protein in coating buffer at lug/ml overnight. After washed for 3 times, the plate was blocked with 1% BSA, and then cell culture supernatants containing rabbit-human chimeric CD40 antibodies were added to the plate. For detection of the antibody binding to CD40 protein, goat anti-human Fc polyclonal antibody conjugated to alkaline phosphatase was used.

T1 sequence (P25942 21-193 limits assumed): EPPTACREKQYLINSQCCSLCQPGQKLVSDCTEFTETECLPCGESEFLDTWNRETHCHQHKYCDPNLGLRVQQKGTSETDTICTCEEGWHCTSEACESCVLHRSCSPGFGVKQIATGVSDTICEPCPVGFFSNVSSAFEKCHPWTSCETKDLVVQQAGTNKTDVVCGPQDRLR
Chain of CD40 on HEKBlue CD40L reporter cells (P25942 21-277 limits assumed): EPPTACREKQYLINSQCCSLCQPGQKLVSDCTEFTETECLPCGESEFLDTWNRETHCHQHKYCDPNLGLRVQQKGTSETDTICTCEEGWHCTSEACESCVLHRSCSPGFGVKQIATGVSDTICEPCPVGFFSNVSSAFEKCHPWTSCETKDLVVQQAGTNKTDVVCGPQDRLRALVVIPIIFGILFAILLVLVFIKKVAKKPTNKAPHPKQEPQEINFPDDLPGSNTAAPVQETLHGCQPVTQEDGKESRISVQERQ
T2 sequence (P25942 21-277): as the sequence (P25942 21-277 limits assumed) above

B1: 3B5, humanized anti-CD40 mAb, IgG1 isotype (antibody, V domains shown)
VH: EVQLVESGGGLIQPGGSLRLSCAVSGFSLSTYAVSWVRQAPGKGLEWVGIIDSGGGTAYASWVKGRFTISRDNSKNTLYLQMNSLRAEDTAVYYCARGVTFFGLWGQGTLVTVSS
VL: DIVMTQSPSTLSASVGDRVTITCQASQSISNYLSWYQQKPGKAPKLLIYRASDLASGVPSRFSGSGSGTEFTLTISSLQPDDFATYYCQAYYYSGGGSYDYAFGGGTKVEIK
notes: also called HZD_3B5; 3B5 antibody
Kd [1]: < 1 pM | koff [1]: < 1e-07 s⁻¹ | kon [1]: 1.06e+06 M⁻¹ s⁻¹ | EC50 [2]: 0.69 µg/mL | IC50 (read off the curve) [3]: ~0.06 µg/mL

B2: 197 rabbit-human chimeric anti-CD40 antibody (antibody, V domains shown)
VH: QEQLKESGGGLVTPGTALTLTCTASGSDISSYAMNWVRQAPGKGLEYIGVITSSGTIYYANWATGRFTISKASSTTVDLKTTRLTTEDTATYFCARGITGAVTTGLSLWGPGTLVTVSS
VL: DVVMTQTPPSVSEPVGGTVTIKCQASQNIYNNLAWYQQTPGQPPKLLGYAASNLASGVSSRFSGSGYGTEFTLTISDLECADAATYYCLGGYYGNNVGNTFGGGTEVVVK
notes: tested as cell culture supernatant
OD405 [4]: 2.01 OD405

B3: 198 rabbit-human chimeric anti-CD40 antibody (antibody, V domains shown)
VH: QSVKESEGGLFKPTDTLTLTCTVSGFSLGSYTMAWVRQAPGNGLEYIGTIDSSGSADYASWAQSRSTITRNTNLNTVTLKMTSLTAADTATYFCARPTNYEYTWALNIWGPGTLVTVSS
VL: DVVMTQTPASVSEPVGGTVTIKCQASQTIYSYLAWYQQKPGQPPKLLIYGASKLASGVPSRFSGSRSGTEFTLTISDLECADAATYYCQCTGYDSAYVYNDFGGGTEVVVK
notes: as for B2
OD405 [4]: 1.8 OD405

B4: 3B5 rabbit-human chimeric anti-CD40 antibody (antibody, V domains shown)
VH: QSVEESGGRLITPGTPLTLTCTVSGFSLSTYAVSWVRQAPGKGLEWIGIIDSGGGTAYASWVKGRFTISKTSTTVDLKITSPTTEDTATYFCARGVTFFGLWGPGTLVTVSS
VL: DIVMTQTPASVEAAVGGTVTIKCQASQSISNYLSWYQQKPGQPPKLLIYRASDLASGVPSRFKGSGSGTEFTLTISDLECADAATYYCQAYYYSGGGSYDYAFGGGTEVVVK
notes: as for B2
OD405 [4]: 1.48 OD405

B5: 2E3 rabbit-human chimeric anti-CD40 antibody (antibody, V domains shown)
VH: QSVEESGGRLVTPGTPLTLTCTVSGFSLSTYAMSWVRQAPGKGLEWIGIIDGSSFTVYANWAKGRFTISKTSTTVDLKMTSLTASDTATYFCARGATFFGLWGPGTLVTVSS
VL: DVVMTQTPASVSAAVGGTVTIKCQASQSISGVLAWYQQKPGQPPKLLIYRAADLASGVPSRFKGSGSGTEFTLTINDLECDDAATYYCQSYYYSNSGSYSYAFGGGTEVVVK
notes: as for B2
OD405 [4]: 1.62 OD405

B6: 4A7 rabbit-human chimeric anti-CD40 antibody (antibody, V domains shown)
VH: QSVEESGGRLVTPGTPLTLTCTVSGFSLSTYAMSWVRQAPGKGLEWIGIIDGGGFAVYANWAKGRFTISKASTTVDLKLPSPTTEDTATYFCARGVTFFNLWGPGTLVTVSS
VL: B4 VL with G17D, N31S, Y32A, S34A, D53T, A55E, A90S, G95S
notes: as for B2
OD405 [4]: 1.65 OD405

B7: 3E12 rabbit-human chimeric anti-CD40 antibody (antibody, V domains shown)
VH: QSVKESEGGLFKPTDTLTLTCTVSGFSFSNYRMIWVRQAPGNGLEWIGVIDRNDNTYYATWAKSRSTITRNTNLNTVTLKMTSLTAADTATYFCARDTDYTTGGIWGPGTLVTVSS
VL: DIVMTQTPASVSAAVGGTVTIKCQASQNIGDNLAWHQQKPGQPPKLLIYGASTLASGVPSRFKGSGSRTEYTLTISDLECADAATYYCQSNYYSTSSSYYNSFGGGTEVVVK
notes: as for B2
OD405 [4]: 1.39 OD405

B8: 4B7 rabbit-human chimeric anti-CD40 antibody (antibody, V domains shown)
VH: B7 VH with S27T, F28L, M33V, V49G, N53S, D54A, N55V, T56A, T60S, T102S
VL: DIVMTQTPSSVSAAVGGTVTIKCQASQNIGGNLAWYQQKPGQPPKLLIYGSSTLESGVPSRFSGSGSGTEYTLTISDLQCADAATYYCQSNYWSRSSSYVNSFGGGTEVVVK
notes: as for B2
OD405 [4]: 1.72 OD405
